Laboratory results as given in EP4653461A1 (DE NOVO BIOTHERAPEUTICS CO., LTD., dated 2025).
Where two headings read alike, the source gives them in different places.

Experiments:
[1] = target: T1, 6506GJ130-1A: Human NKP46 Recombinant Protein (His) (human, UniProt O76036 22-258, limits assumed); test: SPR, Biacore 8K; reference 1-2
T1 construct: also called human NKp46 protein; not shown: His tag

[2] = target: T1, 6506GJ130-1A: Human NKP46 Recombinant …; test: SPR, Biacore 8K, antibody captured on Protein A chip, NKp46 as analyte
[3] = target: T1, 6506GJ130-1A: Human NKP46 Recombinant …; test: as above; remark: listed apart in the source
[4] = target: T1, 6506GJ130-1A: Human NKP46 Recombinant …; test: competition ELISA, NKp46-His coated; no competitor (Control)
[5] = target: T1, 6506GJ130-1A: Human NKP46 Recombinant …; test: competition ELISA, NKp46-His coated; competitor 1-2 at 20 ug/ml
[6] = target: T1, 6506GJ130-1A: Human NKP46 Recombinant …; test: competition ELISA, NKp46-His coated; competitor 1-8 at 20 ug/ml
[7] = target: T1, 6506GJ130-1A: Human NKP46 Recombinant …; test: competition ELISA, NKp46-His coated; competitor 2-1 at 20 ug/ml
[8] = target: T1, 6506GJ130-1A: Human NKP46 Recombinant …; test: competition ELISA, NKp46-His coated; competitor 2-2 at 20 ug/ml
[9] = target: T1, 6506GJ130-1A: Human NKP46 Recombinant …; test: competition ELISA, NKp46-His coated; competitor 2-3 at 20 ug/ml
[10] = target: T1, 6506GJ130-1A: Human NKP46 Recombinant …; test: competition ELISA, NKp46-His coated; competitor 2-5 at 20 ug/ml
[11] = target: T1, 6506GJ130-1A: Human NKP46 Recombinant …; test: competition ELISA, NKp46-His coated; competitor 2-7 at 20 ug/ml
[12] = target: T1, 6506GJ130-1A: Human NKP46 Recombinant …; test: competition ELISA, NKp46-His coated; competitor 1-10 at 20 ug/ml
[13] = target: T1, 6506GJ130-1A: Human NKP46 Recombinant …; test: competition ELISA, NKp46-His coated; competitor 2-10 at 20 ug/ml
[14] = target: T1, 6506GJ130-1A: Human NKP46 Recombinant …; test: competition ELISA, NKp46-His coated; competitor 1-4-2 at 20 ug/ml
[15] = target: T1, 6506GJ130-1A: Human NKP46 Recombinant …; test: SPR, Biacore 8K; reference 2-5
[16] = target: T1, 6506GJ130-1A: Human NKP46 Recombinant …; test: SPR, Biacore 8K; reference 2-3

T1 sequence (O76036 22-258 limits assumed): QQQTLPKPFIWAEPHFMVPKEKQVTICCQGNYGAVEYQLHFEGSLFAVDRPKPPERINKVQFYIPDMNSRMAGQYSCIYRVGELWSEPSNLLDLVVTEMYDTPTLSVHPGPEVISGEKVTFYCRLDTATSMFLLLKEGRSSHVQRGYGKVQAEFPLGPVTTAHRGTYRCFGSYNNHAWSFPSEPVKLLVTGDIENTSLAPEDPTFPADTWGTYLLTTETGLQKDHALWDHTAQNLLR

Binder | fold change of KD against the unhumanized antibody [1] [fold] | Kd [2] [nM] | Kd [3] [nM] | koff [3] [s⁻¹] | kon [3] [M⁻¹ s⁻¹] | ELISA signal [4] | ELISA signal [5] | ELISA signal [6] | ELISA signal [7] | ELISA signal [8] | ELISA signal [9] | ELISA signal [10] | ELISA signal [11] | ELISA signal [12] | ELISA signal [13] | ELISA signal [14] | fold change of KD against the unhumanized antibody [15] [fold] | fold change of KD against the unhumanized antibody [16] [fold]
Hu 1-2 (antibody, V domains shown, Humanized form of 1-2; also called humanized 1-2) VH: QVQLVQSGAEVKKPGASVKVSCKASGYTFTDYYLNWVRQAPGQGLEWIGDIDPHNAGTSYNQKFKDRVTMTVDTSTSTVYMELSSLRSEDTAVYYCARFPIYYSGSSPMDYWGQGTLVTVSS VL: DIQMTQSPSSLSASVGDRVTITCRTNENIFSYLAWYQQKPGKAPKLLIYNAKTLAEGVPSRFSGSGSGTDFTLTISSLQPEDFATYYCQHHYGTPYTFGGGTKLEIK | ≤ 2 | 0.42 to 8.7 | 8.66 | 0.000118 | 13700 |  |  |  |  |  |  |  |  |  |  |  |  | 
28E10B12 (2-3) (antibody, IgG4, V domains shown, Hybridoma clone; made as mouse/human chimeric IgG4) VH: QVQLQQPGAELVKPGASVKLSCKASGYTFTSYWMNWVKQRPGQGLEWIGMIHPNSDITNYNEKFKSQATLTVDKSSSTAYMQLSSLTSEDSAVYYCARHGRFDYWGQGTTLTVSS VL: DIQMTQSPSSLSASLGERVTLTCRASQDIGSSLNWLQQEPDGTIKRLIYATSSLDSGVPKRFSGSRSGSDYSLTISSLESEDFVDYYCLQYASSPFTFGSGTKLEIK |  | 0.24 to 30 | 0.244 | 0.000136 | 555000 | 1.38 | 1.24 | 1.43 | 0.649 | 0.16 | 0.105 | 1.43 | 0.2 | 0.408 | 0.173 | 1.09 |  | 

Next, values leading:

fold change of KD against the unhumanized antibody [1] [fold] | Kd [2] [nM] | Kd [3] [nM] | koff [3] [s⁻¹] | kon [3] [M⁻¹ s⁻¹] | ELISA signal [4] | ELISA signal [5] | ELISA signal [6] | ELISA signal [7] | ELISA signal [8] | ELISA signal [9] | ELISA signal [10] | ELISA signal [11] | ELISA signal [12] | ELISA signal [13] | ELISA signal [14] | fold change of KD against the unhumanized antibody [15] [fold] | fold change of KD against the unhumanized antibody [16] [fold] | Binder
 |  | 3.83 | 7.05e-05 | 18400 |  |  |  |  |  |  |  |  |  |  |  | ≤ 2 |  | Hu 2-5 (antibody, V domains shown, Humanized form of 2-5; also called humanized 2-5) VH: QVQLQESGPGLVKPSQTLSLTCTVSGYSITSDDYWNWIRQPPGKGLEWIGYISYEGSNNYNPSLKNRVTISRDTSKNQFSLKLSSVTAADTAVYYCARLGYPAMDAWGQGTLVTVSS VL: DIQMTQSPSSLSASVGDRVTITCKASQDINSYLSWFQQKPGKAPKSLIYRANRLVDGVPSRFSGSGSGTDYTLTISSLQPEDFATYYCLQYDEFPWTFGGGTKLEIK
 | 0.42 to 8.7 | 0.421 | 0.000138 | 328000 |  |  |  |  |  |  |  |  |  |  |  |  | ≤ 2 | Hu 2-3 (antibody, V domains shown, Humanized form of 2-3; also called humanized 2-3) VH: QVQLVQSGAEVKKPGASVKVSCKASGYTFTSYWMNWVRQAPGQGLEWIGMIHPNSDITNYNEKFKSRVTMTVDTSTSTVYMELSSLRSEDTAVYYCARHGRFDYWGQGTTVTVSS VL: DIQMTQSPSSLSASVGDRVTITCRASQDIGSSLNWLQQKPGKAPKRLIYATSSLDAGVPKRFSGSGSGTDYTLTISSLQPEDFATYYCLQYASSPFTFGGGTKLEIK
